Assay results taken from publication PMC6889914, “Identifying dynamic, partially occupied residues using anomalous scattering” (Acta Crystallographica. Section D, Structural Biology, 2019).
Where no end group is shown, it is not given here. [ ]: non-standard residue; d: D form. Phe(4-I) = N[C@@H](Cc1ccc(I)cc1)C(=O)O

Key:
Spy H96L [1] = biological target: T1, Spy H96L (UniProt P77754 24-161, H96L); test: ITC; MicroCal iTC200; titration of Spy H96L (1.25 mM) with the Im7 6–26 peptides (0.11 µM wild type, 0.055 µM pI-Phe peptides); 10°C; 40 mM HEPES–NaOH pH 7.5, 100 mM NaCl; 2 µl injections at 180 s; one-site model; conditions: both partners purified
T1 construct: also called Super Spy chaperone mutant Spy H96L
T1 sequence (looked up): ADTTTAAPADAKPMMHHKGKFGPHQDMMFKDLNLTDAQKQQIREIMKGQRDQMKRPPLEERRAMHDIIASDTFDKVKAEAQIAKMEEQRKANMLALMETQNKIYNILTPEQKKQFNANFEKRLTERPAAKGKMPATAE

Spy H96L [2] = biological target: T2, Spy H96L (UniProt P77754 24-161, H96L); test: ITC
T2 sequence: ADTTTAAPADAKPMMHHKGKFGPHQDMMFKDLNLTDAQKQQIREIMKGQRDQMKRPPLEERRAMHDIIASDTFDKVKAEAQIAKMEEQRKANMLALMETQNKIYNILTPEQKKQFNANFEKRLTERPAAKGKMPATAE

Row | Binder | binding result (Spy H96L [1]) | Ka (Spy H96L [2]) [M⁻¹] | Kd (Spy H96L [1]) [µM]
1 | SISDYTEAEFVQL[Phe(4-I)]KEIEKEN [Im7 6–26 peptide L19pI-Phe] | binds | 219000 | –
2 | SISDYTEAEFVQ[Phe(4-I)]LKEIEKEN [Im7 6–26 peptide L18pI-Phe] | binds | 1.59e+06 | –
3 | SISDYTEAEFVQLLKEIEKEN (also called wild-type Im7 6–26 peptide; Im7 peptide) [Im7 6–26 peptide (wild type)] | – | 102000 | 7.8 ± 0.6
4 | SISDYTEAEFVQLLFEIEKEN (also called L20pI-Phe (as misprinted in places)) [Im7 6–26 peptide K20pI-Phe] | binds | 218000 | –
